{"source": "a protein production outcome set (Wang et al. 2014)"}
{"test": "label from the status in PepcDB records"}
{"sequence": "AAIILHEIYGINAHIQRAGHEWMTRGFDIYIPALFPHHTPFRYEQQEEAYRHFSANVGFDPAVVTTLLHELRTQYETLIVVGYSVGATLAWLSAASGLCDGVICYYGSRIRQYLHLAPLCPTLVIIARYEPAFDPLAMRQTLEKRPRVQCKMYDARHGFCDADSATFDAALSHQVMDDVSAFIRDI", "protein production": "failed"}
{"sequence": "AAIRHITTGTYIARIREEYQQTEVKPELQPMKEALARMTDRAEALIAFVTEQKDQELLDFQARRLVEMTAHAVFGHLLMLAANDDDSFRQSAEVYLRYGQAEQEKIDSYVRAFRPEELTFYSRCSRPE", "protein production": "not failed"}
{"sequence": "ADGILVVDLKGNIEFCNQQFLKMWGIAPGFIDSHNDTETIQYVLNQLKNPEEFLKQIKELYNNPKQESFDELHFKDGKIFERYSQPHWLDN", "protein production": "failed"}
{"sequence": "ADWPDRFNLRKPFEKLLYSGSRTGFRLASERSAKQAKGPRKADPDGLFDLSFSDDQQMLVDMLEGFALEVLRPLAHDADAEASLPAELLNQALELGLTHYGVGEVHGGMAGERTTVTTALIAEALAKGDLTLAAALLVPLSAANCIRRWGSPSQQAQWLPAFVSEEGAPLTAIAVNEPSLLFDPQKLATRARRKGSHYLLSGEKCLVLRGLEASRLIVAAKTDEGPALFLVEASAKGVERRAEPAMGLKAGGTARLRLKSVKVPADNRLAAEHFDYRAFLDHASLAWCALALGTGQAALDYVIAYCNEREAFGEPISHRQGVAFMVADIAIELDAMRLMVWRACALAERGQPFQREAYLARLLCAEKAMKIGTDAVQLLGGHGFTKEHPAERWYR", "protein production": "failed"}
{"sequence": "AEEKKEDEFKTIKIEKLDGGITKLVLNRPDRLNTISPEVLDEIDRAITQLWNDKDTRVIVITGAGDRAFSAGADLGGSIITHPFDFLEHNRKGERVFTRLREIPKPVIAAINGYALGGGLEIAMNCDIRLAKKSAVLGLPEVGLGILPGWSGTQRLVKLVGISRAMQLALTGERITAEEAERWGLVNKVFDDDKFEEEVMNYAKNIAERCAPISMALIKRLINKGGEVPMDIGLEWECTAAGLLFATEDMREGISAFLRKDKPQFKGR", "protein production": "failed"}
{"sequence": "AEIDTSSIVEMVQGAEDAPVEVIEYASYTCPHCAAFHEGPYKKLKADFIDTGKVRFIYREVYFDRYGLWASMVARCAGPEKFFGISDLIYKGQAEWSRAGGPAEIAEELRKIGRLAGIENDKLEACLGDATKAQTLVAWYQEHATRDDINSTPSFMINGKKVENQAYDGFKALIEAELGN", "protein production": "not failed"}
{"sequence": "AEIYNKDGNKVDLYGKAVGLHYFSKGNGENSYGGNGDMTYARLGFKGETQINSDLTGYGQWEYNFQGNNSEGADAQTGNKTRLAFAGLKYADVGSFDYGRNYGVVYDALGYTDMLPEFGGDTAYSDDFFVGRVGGVATYRNSNFFGLVDGLNFAVQYLGKNERDTARRSNGDGVGGSISYEYEGFGIVGAYGAADRTNLQEAQPLGNGKKAEQWATGLKYDANNIYLAANYGETRNATPITNKFTNTSGFANKTQDVLLVAQYQFDFGLRPSIAYTKSKAKDVEGIGDVDLVNYFEVGATYYFNKNMSTYVDYIINQIDSDNKLGVGSDDTVAVGIVYQF", "protein production": "not failed"}
{"sequence": "AEPVLGDDGLYQLDWYLQSFLDLKEDLEGATAKGKRFAILWGLKGCPYCKKLHDVHMRDPAIESYIRDNFEIVHLNHIGAREVTDFDGSKLSEKAFAQAYGIRFTPSLQFFPESADGLAAKKPQDREVARMPGLLEPPEFLAMFKYVREKGYQSM", "protein production": "failed"}
{"sequence": "AESLSGLSLKLVKKEPRQLELTWAGSRPRNPGGNLSYELHVLNQDEEWHQMVLEPRVLLTKLQPDTTYIVRVRTLTPLGPGPFSPDHEFRTSPP", "protein production": "not failed"}
{"sequence": "AGGRERRVAVLFCDLRDFTRIAEHRLPYDTVFLLNRYFEVVGEAVEGSGGVVDKFIGDGALAIFGLKTPLPEACRQALSAAARLSQGIRALNQTFEGELEQPLRLAIGLHAGPAIIGEMGYGQATSLTVVGDTINTASRLEGLAKEHDVELAVSAELVERAGLSFEGHRRLEIGLRGRKATLETWIIGDAAQLSLSLP", "protein production": "failed"}
{"sequence": "AGNRASNQGNSQPQQKYTVMSGTPEKILEHFLETIRLEATLNEATDSVLNDFIMMHCVFMPNTQLCPALVAHYHAQPSQGTEQEKMDYALNNKRRVIRLVLQWAAMYGDLLQEDDVSMAFLEEFYVSVSDDARM", "protein production": "failed"}
{"sequence": "AIAAQKISEAHEHIAKAEKYLKTSFMKWKPDYDSAASEYAKAAVAFKNAKQLEQAKDAYLQEAEAHANNRSLFHAAKAFEQAGMMLKDLQRMPEAVQYIEKASVMYVENGTPDTAAMALDRAGKLMEPLDLSKAVHLYQQAAAVFENEERLRQAAELIGKASRLLVRQQKFDEAAASLQKEKSMYKEMENYPTCYKKCIAQVLVQLHRADYVAAQKCVRESYSIPGFSGSEDCAALEDLLQAYDEQDEEQLLRVCRSPLVTYMDNDYAKLAISLKVPGGGGGKKKPSASASAQPQEEEDDEYAGGLC", "protein production": "failed"}
{"sequence": "AIAASGKRKGLSFDDKKTRLLELFNETCDFYTLKELEKIAPKLKGIITQSVKDVLQSLVDDDLVNSDKCGVQTIYWCLPSEAVAKRQRRLDALQQQLAEKRQKLTALQRQLVQVQAGREDSVERTAVLERLAACEAAWRERQRTLESYLECDPDVLAQRETETKTLIEQANRWTDNLYVIRSYVQRNLGVDLDLFDQQFELKPALQYLE", "protein production": "failed"}
{"sequence": "AIADELNSPLGERAQGASLAHVVWSDPQWLERYPLTFENVLTYFSRSPFYDPTCNNELVRMQMHPELQGEMLYYTQREEELLLGMQGVEYVPLCSSDAHELFIIRKQVRRSADEVHVTNLYYILYGQVYEAPAFSTVLLVRLRQSADFLVRSLGLLRQWLSKKEYGEPGATGHGHEDTLLLQLLRKAQQRNRQL", "protein production": "failed"}
{"sequence": "AIAEAKTLGIATPRKPVLSVSARKLKDNAADWHNLILKWDSLSDKGFTTASSIANLKVSLLSKEKVELESSSPASMEEEEKTNLDYDKGLEALCEELQAILDGLTKIQMKMEKLSSTTKGICELENYHYREESSRPPLFHTWPTAFFYEVSRRLSEAYKKELLLKHTIGAELAHTADRNLSLTYLSMWLHQPYIESNSKLQLESMLLETGHRAL", "protein production": "failed"}
{"sequence": "AIANSLVRRSAQQLSLWRTYCIKHNASEAASPGRNAGRPNYEEFIGRHQRQAQCSIVVQVSSEKSYEELYNYCSSFGSIMGAHHYCVRQDETLHYILLEYATSDEAAAAIGAGVTNGELSGVPVRSPFLWFRAAGGGRRSPKLVANTAPALLSLDGTRQVDQRHLLGLLRGAADIEEQVQQLYEHTRLNELGIRMRFLAALQVQQAIAGMFPAAQAQPFGSSVNGFGRMGCDLDLILRFDSDMGAKIPLEAAVPSRLVYHTKENLSNGRSQTQRHMECFGDMLHLFLPGVCHVRRILQARVPIIKYHHEHLDLEVDLSMSNLTGFYMSELLYMFGEMDPRVRPLTFTIRRWAQTCGLTNPSPGRWISNFSLTCLVMFFLQQLRQPILPTIGALAKAAEPGDSRVTEDGINCTFTRNVDRLGFRSRNQSSLSELLLQFFEFYSQFDFHNRAISLNEGKPLSKPDHSAMYIVNPLEQLLNVSKNVSLEECERLRIEVRNAAWVLESEVENASVPEGDGQELSCGLLNLFKHPEKAVIRPNMFFKPRMVEVSDLFEQKEAGATSSSTPPTPAITYKSASVRQQVQSIKAATRSELKQLRGSGSSVPTSSPNNRRRS", "protein production": "failed"}
{"sequence": "AIARTDSSKMTDVESGVANFASSARAGRRNALPDIQSSAATDGTSDLPLKLEALSVKEDAKEKDEKTTQDQLEKPQNEEK", "protein production": "failed"}
{"sequence": "AIASSAIERKSLDPSEEPVDEVLQIPPSLLTCGGCQQNIGDRYFLKAIDQYWHEDCLSCDLCGCRLGEVGRRLYYKLGRKLCRRDYLRLFGQDGLCASCDKRIRAYEMTMRVKDKVYHLECFKCAACQKHFCVGDRYLLINSDIVCEQDIYEWTKINGMI", "protein production": "failed"}
{"sequence": "AIASSAPAPGPAPASLTLWDEEDFQGRRCRLLSDCANVCERGGLPRVRSVKVENGVWVAFEYPDFQGQQFILEKGDYPRWSAWSGSSSHNSNQLLSFRPVLCANHNDSRVTLFEGDNFQGCKFDLVDDYPSLPSMGWASKDVGSLKVSSGAWVAYQYPGYRGYQYVLERDRHSGEFCTYGELGTQAHTGQLQSIRRVQH", "protein production": "failed"}
{"sequence": "AIDHRIQYLAYREIKAAVETNKAKAGSVVVLDAHTGELLALANYPSFNPNNRSGVTPEMMRNRGVIDLFEPGSTMKPLSISLALEHGKANLNTVLDTHSYMIGPATIRDVSPQASLGILGIIQKSSNVGTSKLALLNSPEEFWKHYDALGFGRAPETGFPGEASGRLRDWHKWRPIEQATMSFGYGVSVSLIQMARAYTIFANDGVMLPVALYKTANPMPGKRVLSEKTAHEMRDLLIANSQPGGGAVGGRIIGYSIGGKSGTARKLEGRAYVANKHRALFMGFAPGHSPKVIVAVMIDEPSAGKYYGGAVSAPVFSQVAGGALRVLNIAPD", "protein production": "failed"}
{"sequence": "AIGMALVGTEGQWLQVNKSLSHFLGYSQDELRTMTFQQLTWPEDLNNDLEQLNMLVRGDINSYSMEKRYYTRNGDVVWALLAVSLVRHKDNKPLYFIAQIEDINDLKQSEQENQRLMERITQANDALFQEKERLHITLDSIG", "protein production": "failed"}
{"sequence": "AIPQHEHPMIIAGFGRFGQIIARNARLNHIGFTAIDNNLQQIDFVRRYGGTLYYGDITQPDILRAAGIEKAKVFILAIDDVEDSMNVARHIRLNYPQITLMVRARDRYQVHLLRDLGVEHIWRETYLSSLGMAYRALCELGIP", "protein production": "failed"}
{"sequence": "AISPNRASHTLADIRNQLSTRILILDGAMGTMIQGYKLEEADYRGERFKDWHTDVKGNNDLLVLTQPHIIKQIHTDYLLAGADIIETNTFNATTIAMADYDMQSLSAEINREGARLAREACDAIEQATGKPRYVAGVLGPTNRTCSISPDVNDPGFRNIHFDELVTAYCESTRALIEGGADIIMVETIFDTLNAKAALFAIETVFDELFGANSPARLPVMISGTITDASGRTLTGQTTEAFYNSLRHIKPLSIGLNCALGPKELRPYVEELSRIAECYVSAHPNAGLPNEFGGYDETPEDMAKVIQEWAREGMLNIIGGCCGSTPEHIKVIREAVEQFAPRVLPEIPVACRLAGLEPLTIDAQTLFVNVGERTNVTGSAKF", "protein production": "failed"}
{"sequence": "AIVHEMLKDTHPQYAYRSGMSAQEFTQWQDGVRAAMVEIMKFPEIKRQPSPVCVKTEKKEGYILEKWEFYPFPKSVSTFLVLKPEHLKGAVPGVLCIPGSGRTKEGLVGEPGICDKLTEDYNNPKVSMALNMVKEGYVAVAVDNAAAGEASDLECYDKGWNYDYDVVSRFLLELGWSWLGYTSYLDMQVLNWMKAQSYIRKDRIVISGFSLGTEPMMVLGVLDKDIYAFVYNDFLCQTQERAVVMTKPDKENRRPFPNSIRHLIPGYWRYFNFPDVVASLAPRPIIFTEGGLDRDFRLVQSAYAASGKPENAEFHHYPKFADKAVRKDVEHLDEGLDSKTYFEAVNVDPPSHYFKNELVIPWLRKVLK", "protein production": "not failed"}
{"sequence": "AIVNASNNAILTTSITGEILSANPAAVQMFQSLEQELKGISVSRLFAEKDEMHFFFDFQSNVYSLQRKALGISVECLSLRSDGTEFPAQAELQWADRAKQPLIVITFINLS", "protein production": "failed"}
{"sequence": "AIYVDLPNRQLKVKVADRRVISTTDAERQAVTPPGLQEAINDLVKKYTLARAFVRPSGTEDIVRVYAEANSQESADRLAYEVSLLVFQLAGGIGERPQP", "protein production": "not failed"}
{"sequence": "AKGKNLIIVQLESFQRNLTNIKIDGQSITPTLDSLQNETMYSNKFFQTVSKSNTADAEWSVYTSTFPSGYYTNTQTYGDRVIPSMPRLLGKNDYTTSTFHTNDASFYNRDEFYPAVGFDKFYDRKFFGDEDVIGFSPSDEVLYNKAFPILEKQYKNNQKFYAQLISVSSHMPFNIPEEKQEINLPSDLKDTELGNYFEAVHYADKQLGAFIQKLKDSGIWEDSVVVFYGDHHIIKTDQLPEEQKKYVNRSTELKADPADDYRIPFFLHYPGMKNPGEIKNVGGEIDIMPTVMNLLGINTGNQIMFGTDILNSTNNYVPERYTMPEGSYFTDSYMYQP", "protein production": "failed"}
